Results from patent US8748182B2, “Mutant proteins and methods for producing them” (Heptares Therapeutics Limited, priority 2007, dated 2014).

B1: 1116A: NTR point mutant (Ile 116) (protein, UniProt P20789 1-424, looked up, variant I116A)
Neurotensin receptor type 1: MHLNSSVPQGTPGEPDAQPFSGPQSEMEATFLALSLSNGSGNTSESDTAGPNSDLDVNTDIYSKVLVTAIYLALFVVGTVGNSVTAFTLARKKSLQSLQSTVHYHLGSLALSDLLALLLAMPVELYNFIWVHHPWAFGDAGCRGYYFLRDACTYATALNVASLSVERYLAICHPFKAKTLMSRSRTKKFISAIWLASALLAIPMLFTMGLQNRSGDGTHPGGLVCTPIVDTATVKVVIQVNTFMSFLFPMLVISILNTVIANKLTVMVHQAAEQGRVCTVGTHNGLEHSTFNMTIEPGRVQALRHGVLVLRAVVIAFVVCWLPYHVRRLMFCYISDEQWTTFLFDFYHYFYMLTNALFYVSSAINPILYNLVSANFRQVFLSTLACLCPGWRHRRKKRPTFSRKPNSMSSNHAFSTSATRETLY
B2: R392A: NTR point mutant (protein, UniProt P20789 1-424, looked up, variant R392A)
Neurotensin receptor type 1: MHLNSSVPQGTPGEPDAQPFSGPQSEMEATFLALSLSNGSGNTSESDTAGPNSDLDVNTDIYSKVLVTAIYLALFVVGTVGNSVTAFTLARKKSLQSLQSTVHYHLGSLALSDLLILLLAMPVELYNFIWVHHPWAFGDAGCRGYYFLRDACTYATALNVASLSVERYLAICHPFKAKTLMSRSRTKKFISAIWLASALLAIPMLFTMGLQNRSGDGTHPGGLVCTPIVDTATVKVVIQVNTFMSFLFPMLVISILNTVIANKLTVMVHQAAEQGRVCTVGTHNGLEHSTFNMTIEPGRVQALRHGVLVLRAVVIAFVVCWLPYHVRRLMFCYISDEQWTTFLFDFYHYFYMLTNALFYVSSAINPILYNLVSANFRQVFLSTLACLCPGWAHRRKKRPTFSRKPNSMSSNHAFSTSATRETLY
B3: G209A: NTR point mutant (protein, UniProt P20789 1-424, looked up, variant G209A)
Neurotensin receptor type 1: MHLNSSVPQGTPGEPDAQPFSGPQSEMEATFLALSLSNGSGNTSESDTAGPNSDLDVNTDIYSKVLVTAIYLALFVVGTVGNSVTAFTLARKKSLQSLQSTVHYHLGSLALSDLLILLLAMPVELYNFIWVHHPWAFGDAGCRGYYFLRDACTYATALNVASLSVERYLAICHPFKAKTLMSRSRTKKFISAIWLASALLAIPMLFTMALQNRSGDGTHPGGLVCTPIVDTATVKVVIQVNTFMSFLFPMLVISILNTVIANKLTVMVHQAAEQGRVCTVGTHNGLEHSTFNMTIEPGRVQALRHGVLVLRAVVIAFVVCWLPYHVRRLMFCYISDEQWTTFLFDFYHYFYMLTNALFYVSSAINPILYNLVSANFRQVFLSTLACLCPGWRHRRKKRPTFSRKPNSMSSNHAFSTSATRETLY
B4: A120L: NTR point mutant (protein, UniProt P20789 1-424, looked up, variant A120L)
Neurotensin receptor type 1: MHLNSSVPQGTPGEPDAQPFSGPQSEMEATFLALSLSNGSGNTSESDTAGPNSDLDVNTDIYSKVLVTAIYLALFVVGTVGNSVTAFTLARKKSLQSLQSTVHYHLGSLALSDLLILLLLMPVELYNFIWVHHPWAFGDAGCRGYYFLRDACTYATALNVASLSVERYLAICHPFKAKTLMSRSRTKKFISAIWLASALLAIPMLFTMGLQNRSGDGTHPGGLVCTPIVDTATVKVVIQVNTFMSFLFPMLVISILNTVIANKLTVMVHQAAEQGRVCTVGTHNGLEHSTFNMTIEPGRVQALRHGVLVLRAVVIAFVVCWLPYHVRRLMFCYISDEQWTTFLFDFYHYFYMLTNALFYVSSAINPILYNLVSANFRQVFLSTLACLCPGWRHRRKKRPTFSRKPNSMSSNHAFSTSATRETLY
B5: M181A: NTR point mutant (protein, UniProt P20789 1-424, looked up, variant M181A)
Neurotensin receptor type 1: MHLNSSVPQGTPGEPDAQPFSGPQSEMEATFLALSLSNGSGNTSESDTAGPNSDLDVNTDIYSKVLVTAIYLALFVVGTVGNSVTAFTLARKKSLQSLQSTVHYHLGSLALSDLLILLLAMPVELYNFIWVHHPWAFGDAGCRGYYFLRDACTYATALNVASLSVERYLAICHPFKAKTLASRSRTKKFISAIWLASALLAIPMLFTMGLQNRSGDGTHPGGLVCTPIVDTATVKVVIQVNTFMSFLFPMLVISILNTVIANKLTVMVHQAAEQGRVCTVGTHNGLEHSTFNMTIEPGRVQALRHGVLVLRAVVIAFVVCWLPYHVRRLMFCYISDEQWTTFLFDFYHYFYMLTNALFYVSSAINPILYNLVSANFRQVFLSTLACLCPGWRHRRKKRPTFSRKPNSMSSNHAFSTSATRETLY
B6: S108A: NTR point mutant (protein, UniProt P20789 1-424, looked up, variant S108A)
Neurotensin receptor type 1: MHLNSSVPQGTPGEPDAQPFSGPQSEMEATFLALSLSNGSGNTSESDTAGPNSDLDVNTDIYSKVLVTAIYLALFVVGTVGNSVTAFTLARKKSLQSLQSTVHYHLGALALSDLLILLLAMPVELYNFIWVHHPWAFGDAGCRGYYFLRDACTYATALNVASLSVERYLAICHPFKAKTLMSRSRTKKFISAIWLASALLAIPMLFTMGLQNRSGDGTHPGGLVCTPIVDTATVKVVIQVNTFMSFLFPMLVISILNTVIANKLTVMVHQAAEQGRVCTVGTHNGLEHSTFNMTIEPGRVQALRHGVLVLRAVVIAFVVCWLPYHVRRLMFCYISDEQWTTFLFDFYHYFYMLTNALFYVSSAINPILYNLVSANFRQVFLSTLACLCPGWRHRRKKRPTFSRKPNSMSSNHAFSTSATRETLY
B7: A356L: NTR point mutant (protein, UniProt P20789 1-424, looked up, variant A356L)
Neurotensin receptor type 1: MHLNSSVPQGTPGEPDAQPFSGPQSEMEATFLALSLSNGSGNTSESDTAGPNSDLDVNTDIYSKVLVTAIYLALFVVGTVGNSVTAFTLARKKSLQSLQSTVHYHLGSLALSDLLILLLAMPVELYNFIWVHHPWAFGDAGCRGYYFLRDACTYATALNVASLSVERYLAICHPFKAKTLMSRSRTKKFISAIWLASALLAIPMLFTMGLQNRSGDGTHPGGLVCTPIVDTATVKVVIQVNTFMSFLFPMLVISILNTVIANKLTVMVHQAAEQGRVCTVGTHNGLEHSTFNMTIEPGRVQALRHGVLVLRAVVIAFVVCWLPYHVRRLMFCYISDEQWTTFLFDFYHYFYMLTNLLFYVSSAINPILYNLVSANFRQVFLSTLACLCPGWRHRRKKRPTFSRKPNSMSSNHAFSTSATRETLY
B8: D113A: NTR point mutant (protein, UniProt P20789 1-424, looked up, variant D113A)
Neurotensin receptor type 1: MHLNSSVPQGTPGEPDAQPFSGPQSEMEATFLALSLSNGSGNTSESDTAGPNSDLDVNTDIYSKVLVTAIYLALFVVGTVGNSVTAFTLARKKSLQSLQSTVHYHLGSLALSALLILLLAMPVELYNFIWVHHPWAFGDAGCRGYYFLRDACTYATALNVASLSVERYLAICHPFKAKTLMSRSRTKKFISAIWLASALLAIPMLFTMGLQNRSGDGTHPGGLVCTPIVDTATVKVVIQVNTFMSFLFPMLVISILNTVIANKLTVMVHQAAEQGRVCTVGTHNGLEHSTFNMTIEPGRVQALRHGVLVLRAVVIAFVVCWLPYHVRRLMFCYISDEQWTTFLFDFYHYFYMLTNALFYVSSAINPILYNLVSANFRQVFLSTLACLCPGWRHRRKKRPTFSRKPNSMSSNHAFSTSATRETLY
B9: L72A: NTR point mutant (protein, UniProt P20789 1-424, looked up, variant L72A)
Neurotensin receptor type 1: MHLNSSVPQGTPGEPDAQPFSGPQSEMEATFLALSLSNGSGNTSESDTAGPNSDLDVNTDIYSKVLVTAIYAALFVVGTVGNSVTAFTLARKKSLQSLQSTVHYHLGSLALSDLLILLLAMPVELYNFIWVHHPWAFGDAGCRGYYFLRDACTYATALNVASLSVERYLAICHPFKAKTLMSRSRTKKFISAIWLASALLAIPMLFTMGLQNRSGDGTHPGGLVCTPIVDTATVKVVIQVNTFMSFLFPMLVISILNTVIANKLTVMVHQAAEQGRVCTVGTHNGLEHSTFNMTIEPGRVQALRHGVLVLRAVVIAFVVCWLPYHVRRLMFCYISDEQWTTFLFDFYHYFYMLTNALFYVSSAINPILYNLVSANFRQVFLSTLACLCPGWRHRRKKRPTFSRKPNSMSSNHAFSTSATRETLY
B10: F358A: NTR point mutant (protein, UniProt P20789 1-424, looked up, variant F358A)
Neurotensin receptor type 1: MHLNSSVPQGTPGEPDAQPFSGPQSEMEATFLALSLSNGSGNTSESDTAGPNSDLDVNTDIYSKVLVTAIYLALFVVGTVGNSVTAFTLARKKSLQSLQSTVHYHLGSLALSDLLILLLAMPVELYNFIWVHHPWAFGDAGCRGYYFLRDACTYATALNVASLSVERYLAICHPFKAKTLMSRSRTKKFISAIWLASALLAIPMLFTMGLQNRSGDGTHPGGLVCTPIVDTATVKVVIQVNTFMSFLFPMLVISILNTVIANKLTVMVHQAAEQGRVCTVGTHNGLEHSTFNMTIEPGRVQALRHGVLVLRAVVIAFVVCWLPYHVRRLMFCYISDEQWTTFLFDFYHYFYMLTNALAYVSSAINPILYNLVSANFRQVFLSTLACLCPGWRHRRKKRPTFSRKPNSMSSNHAFSTSATRETLY
B11: L205A: NTR point mutant (protein, UniProt P20789 1-424, looked up, variant L205A)
Neurotensin receptor type 1: MHLNSSVPQGTPGEPDAQPFSGPQSEMEATFLALSLSNGSGNTSESDTAGPNSDLDVNTDIYSKVLVTAIYLALFVVGTVGNSVTAFTLARKKSLQSLQSTVHYHLGSLALSDLLILLLAMPVELYNFIWVHHPWAFGDAGCRGYYFLRDACTYATALNVASLSVERYLAICHPFKAKTLMSRSRTKKFISAIWLASALLAIPMAFTMGLQNRSGDGTHPGGLVCTPIVDTATVKVVIQVNTFMSFLFPMLVISILNTVIANKLTVMVHQAAEQGRVCTVGTHNGLEHSTFNMTIEPGRVQALRHGVLVLRAVVIAFVVCWLPYHVRRLMFCYISDEQWTTFLFDFYHYFYMLTNALFYVSSAINPILYNLVSANFRQVFLSTLACLCPGWRHRRKKRPTFSRKPNSMSSNHAFSTSATRETLY

Experiment: Thermostability of neurotensin receptor (NTR) mutants (3H-neurotensin binding)
Format: physicochemical
Settings: for thermostability, 3H-neurotensin (agonist) binding after the heating step: heated in the absence of the agonist
Experimental: FIG. 12 Flow chart showing the two different assay formats of ligand (+) and ligand (−) used to determine receptor thermostablity.
3. Mutants tested for thermostability by heating in the absence of the agonist were re-tested using a slightly different assay where the mutants were heated in the presence of ^3H-neurotensin (Ligand(+) format in FIG. 12). […] All of these also have increased thermostability. • 5. Preferred combinations are • a. Nag7m F358A+A86L+1260A+F342A Tm 51° C. (neurotensin bound) • b. Nag7n F358A+H103A+1260A+F342A Tm 51° C. (neurotensin bound) • Wildtype NTR has a Tm of 35° C. with neurotensin bound.

| Molecule | thermostability, 3H-neurotensin (agonist) binding after the heating step | thermostability, heated in the presence of 3H-neurotensin (Ligand(+) format) |
| --- | --- | --- |
| B1 | small but significant increase in thermostability | – |
| B2 | small but significant increase in thermostability | – |
| B3 | small but significant increase in thermostability | – |
| B4 | small but significant increase in thermostability | – |
| B5 | small but significant increase in thermostability | – |
| B6 | small but significant increase in thermostability | – |
| B7 | small but significant increase in thermostability | – |
| B8 | small but significant increase in thermostability | – |
| B9 | small but significant increase in thermostability | – |
| B10 | small but significant increase in thermostability | improved thermostability |
| B11 | small but significant increase in thermostability | – |
